According to ChEMBL document CHEMBL2073952, “Na(+)-coupled transport of L-carnitine via high-affinity carnitine transporter OCTN2 and its subcellular localization in kidney” (Biochim Biophys Acta, 2001):

Substrate: C[N+](C)(C)CC(O)CC(=O)[O-]
Test: TP_TRANSPORTER: uptake in membrane vesicle from OCTN2-expressing HEK 293 cell
Assay type: functional, cell membranes, HEK293

B1: Organic cation/carnitine transporter 2 (Homo sapiens) (protein)
chain: MRDYDEVTAFLGEWGPFQRLIFFLLSASIIPNGFTGLSSVFLIATPEHRCRVPDAANLSSAWRNHTVPLRLRDGREVPHSCRRYRLATIANFSALGLEPGRDVDLGQLEQESCLDGWEFSQDVYLSTIVTEWNLVCEDDWKAPLTISLFFVGVLLGSFISGQLSDRFGRKNVLFVTMGMQTGFSFLQIFSKNFEMFVVLFVLVGMGQISNYVAAFVLGTEILGKSVRIIFSTLGVCIFYAFGYMVLPLFAYFIRDWRMLLVALTMPGVLCVALWWFIPESPRWLISQGRFEEAEVIIRKAAKANGIVVPSTIFDPSELQDLSSKKQQSHNILDLLRTWNIRMVTIMSIMLWMTISVGYFGLSLDTPNLHGDIFVNCFLSAMVEVPAYVLAWLLLQYLPRRYSMATALFLGGSVLLFMQLVPPDLYYLATVLVMVGKFGVTAAFSMVYVYTAELYPTVVRNMGVGVSSTASRLGSILSPYFVYLGAYDRFLPYILMGSLTILTAILTLFLPESFGTPLPDTIDQMLRVKGMKHRKTPSHTRMLKDGQERPTILKSTAF
Km: 2.66 µM
